{
  "source": "patent US20070212700A1",
  "about": "“Methods of using and analyzing biological sequence data” (THE BOARD OF REGENTS OF THE UNIVERSITY OF TEXAS SYSTEM, priority 2005, published 2007)",
  "target": "PPxY-containing peptide",
  "experiment": "isothermal titration calorimetry, ratio of equilibrium dissociation constants (mutant vs wild-type Nedd4.3 WW domain)",
  "data": [
    {"substance": "Nedd4.3 WW domain L3A mutant (from UniProt Q62940 459-492)", "values": [
      {"measurement": "fold effect on peptide binding relative to wild-type", "value": 5.15, "unit": "fold"}
    ]}
  ]
}
